Patent US20160311886A1, “Constructs Binding to Phosphatidylserine and Their Use in Disease Treatment and Imaging” (Board of Regents, The University of Texas System, priority 2005, published 2016)

Legend:
[1] = Reactivity of 9D2 and annexin V with plastic-immobilized phospholipids (panel); type: binding
Protocol: Phospholipids were dissolved in n-hexane to a concentration of 50 μg/ml. 100 μl of this solution was added to wells of 96-well microtiter plates. After evaporation of the solvent in air, the plates were blocked for 2 h with 10% fetal bovine serum diluted in DPBS containing 2 mM Ca^2+ (binding buffer).
9D2 antibody or annexin V were diluted in the binding buffer in the presence of 10% serum at an initial concentration of 6.7 nM. Serial two-fold dilutions were prepared in the plates (100 μl per well). The plates were then incubated for 2 h at room temperature. The plates were washed and the 9D2 and annexin V were detected by goat anti-rat IgM conjugated to HRP and rabbit anti-human annexin V followed by goat anti-rabbit IgG conjugated to HRP (all diluted 1:1000), respectively. Secondary reagents were detected by using chromogenic substrate OPD followed by reading plates at 490 nm using a microplate reader (Molecular Devices, Palo Alto, Calif.).
The specificity of the 9D2 antibody binding was validated by using control rat IgM of irrelevant specificity (Pharmingen, San Diego, Calif.). The specificity of annexin V binding to phospholipids, which is Ca^2+-dependent, was determined by diluting the reagent in the DPBS containing 5 mM EDTA. Additional negative controls consisted of washing the plates with the binding buffer containing 0.2% of a detergent Tween 20. This treatment extracts lipids, thus removing the phospholipid that was absorbed to plastic. Neither 9D2 antibody nor annexin V bound to detergent-washed plates.

[2] = tested on: Pan02 mouse pancreatic adenocarcinoma; test: 3G4 and gemcitabine, pancreatic cancer; type: in vivo; details: 3G4 100 μg, gemcitabine 3.5 mg; day 22
Protocol: Pan02 mouse pancreatic adenocarcinoma cells were injected into the pancreas of immunocompetent C57BL/6 mice. Treatment was started on day 5 after tumor cell injection. […] Gemcitabine is a pyrimidine anti-metabolite. The animals were sacrificed at day 22 after tumor cell injection, and the tumor weight determined.

[3] = Anti-PS ELISA in OVA or sera of different species; type: binding
Protocol: The assay was performed as follows (see also, Ran et al., 2005, specifically incorporated herein by reference). PS-coated Immunlon 1B microtiter plates were blocked overnight in 1% OVA (w/v). […] Dilutions were performed in 1% OVA or 10% non-heat inactivated sera from cow, human, rat or mouse. […] All ELISA studies were performed at least three times.

[4] = tested on: orthotopic MDA-MB-231 tumors; test: 3G4 tumor treatment and histology; type: in vivo, mouse
Protocol: The general protocol for the animal tumor treatment studies is conducted as follows. Unless particular differences are specified, this is the protocol used throughout the studies of the present application.
For the syngeneic model, Meth A mouse fibrosarcoma tumor cells were used. In one xenogeneic model, human MDA-MB-231 breast tumor cells were seeded into the mammary fat pad. In another xenogeneic model, a large human Hodgkin's lymphoma L540 xenograft was established by injecting cells and allowing the tumor to grow to a size of over 500 mm^3 before treatment. […] Treatment was repeated 3 times a week. Animals were monitored twice a week for tumor measurements.
Groups of 8-10 female SCID mice were injected subcutaneously with 2×10^7 L540 cells or orthotopically with 1×10^7 MDA-MB-435 or MDA-MB-231 cells. BALB/c mice were injected subcutaneously with 1×10^6 Meth A cells. Tumors were allowed to grow to an average diameter of 0.8-1 cm (L540), 0.6-0.7 cm (MDA-MB-435), 0.5-0.7 cm (MDA-MB-231), or <0.1 cm (Meth A). […] Animals were monitored three times a week for tumor size and body weight. Mice were sacrificed when tumors in control mice reached a diameter of 1.5-2 cm.

human β2GPI = target: T1, human β2GPI (Homo sapiens, UniProt P02749); test: Anti-hβ2GPI ELISA; type: binding
T1 construct: Human β2GPI (hβ2GP1) was purified from human plasma essentially as described previously; from tissue; host or cells: pooled human plasma
T1 sequence (P02749 20-345): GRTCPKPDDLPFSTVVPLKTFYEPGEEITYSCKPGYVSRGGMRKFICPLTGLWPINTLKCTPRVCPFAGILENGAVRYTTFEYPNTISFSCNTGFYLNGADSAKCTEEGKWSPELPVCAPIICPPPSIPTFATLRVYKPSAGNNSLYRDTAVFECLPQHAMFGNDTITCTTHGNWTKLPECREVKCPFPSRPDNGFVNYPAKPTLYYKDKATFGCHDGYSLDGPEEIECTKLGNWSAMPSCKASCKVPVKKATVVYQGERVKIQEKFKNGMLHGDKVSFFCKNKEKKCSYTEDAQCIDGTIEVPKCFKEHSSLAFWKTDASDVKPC
Protocol: The assay was performed as described above with the following modifications. hβ2GPI, nicked hβ2GPI, or recombinant hβ2GPI peptides were coated on 96-well Immunlon 2HB microtiter plates overnight at a concentration of 10 μg/ml. Plates were then blocked in 1% OVA for 1 hr. at room temperature. […] Plates were incubated for 1 hr. at 37° C. and antibody binding was detected. All ELISA studies were performed at least three times.

WiDr (colon carcinoma) = test: WiDr colon carcinoma model; type: in vivo, mouse; details: 100 μg 3×/week from day 5; preliminary study
Protocol: Treatment was started on day 5, when the tumors were small (10 mice per group). 100 μg of each antibody was injected 3×/week and tumor growth monitored.

## Annexin V: High affinity PS binding ligand; natural ligand binding anionic phospholipids and PE
[1]
  binding to heparin, heparan sulfate or double or single stranded DNA: did not bind detectably
  order of strength of binding to phospholipids in ELISA: PI>PS=PE=PA=CL>PG
[1]; 5 mM EDTA
  effect of EDTA on binding to anionic phospholipids: abolished

B1: 3G4: Mouse IgG3 kappa monoclonal antibody to PS and anionic phospholipids; binding mediated by β2-glycoprotein I (antibody, listed as Mus musculus)
VH: MGWTWIFILILSVTTGVHSEVQLQQSGPELEKPGASVKLSCKASGYSFTGYNMNWVKQSHGKSLEWIGHIDPYYGDTSYNQKFRGKATLTVDKSSSTAYMQLKSLTSEDSAVYYCVKGGYYGHWYFDVWGAGTTVTVSSATTTAPSVYPLVP
VL: MDMRAPAQILGFLLLLFPGTRCDIQMTQSPSSLSASLGERVSLTCRASQDIGSSLNWLQQGPDGTIKRLIYATSSLDSGVPKRFSGSRSGSDYSLTISSLESEDFVDYYCLQYVSSPPTFGAGTKLELKRADAAPTVFIFGRIP
[2]
  anti-tumor effect (tumor weight): significant anti-tumor effect
[3]; 10% mouse serum
  binding to PS: did not bind PS
[3]; 10% rat and human serum
  binding to PS: bound PS
[3]; dilutions in 1% OVA, listed as 3G4 purified from SCM
  binding to PS-coated microtiter plates: binds PS weakly
[3]; dilutions in 1% OVA, listed as 3G4 purified from SFM
  binding to PS-coated microtiter plates: no longer binds PS
[3]; dilutions in 10% FBS
  binding to PS-coated microtiter plates: binds to PS-coated microtiter plates
[3]; hamster, ferret, guinea pig, rabbit and monkey serum
  binding to PS: bound PS
[4]; BBG3-treated: 160±20
  mean number of CD-31 positive vessels per square millimeter: 50±15 per square millimeter
[4]; FITC-dextran plasma marker
  reduction in total tumor plasma volume vs BBG3: 60%
[4]; MDA-MB-231 tumors
  mice with long-term complete remissions: 30%
[4]; histological examination
  vessels with disintegration of vascular endothelium: about 50%
[4]; mouse, in vivo
  reduction in tumor vascularity: about 70%
[4]; treated vs. untreated mice
  reduction in microvascular density: 70%
Human β2GPI
  binding to hβ2GPI coated plate: bound strongly
WiDr (colon carcinoma)
  tumor growth: slowed tumor growth to essentially the same degree
